Measurements reported in patent US20230167164A1 (IMMUNOWAKE, published 2023).

Target: T1, human IL-2 receptor (human, UniProt P01589 22-272; P14784 27-551; P31785 23-369)
T1 construct: whole, on cells; also called IL-2Rα, IL-2Rβ, IL-2Rγ; HEK-Blue IL-2 cells
T1 sequence (looked up) 1: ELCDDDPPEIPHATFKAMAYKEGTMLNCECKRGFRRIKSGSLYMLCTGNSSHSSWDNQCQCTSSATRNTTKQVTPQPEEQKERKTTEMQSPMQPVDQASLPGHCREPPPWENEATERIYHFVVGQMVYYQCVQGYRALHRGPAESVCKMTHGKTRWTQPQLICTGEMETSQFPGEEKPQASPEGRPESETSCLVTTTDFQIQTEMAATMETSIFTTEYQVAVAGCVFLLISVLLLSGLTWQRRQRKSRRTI
T1 sequence (looked up) 2: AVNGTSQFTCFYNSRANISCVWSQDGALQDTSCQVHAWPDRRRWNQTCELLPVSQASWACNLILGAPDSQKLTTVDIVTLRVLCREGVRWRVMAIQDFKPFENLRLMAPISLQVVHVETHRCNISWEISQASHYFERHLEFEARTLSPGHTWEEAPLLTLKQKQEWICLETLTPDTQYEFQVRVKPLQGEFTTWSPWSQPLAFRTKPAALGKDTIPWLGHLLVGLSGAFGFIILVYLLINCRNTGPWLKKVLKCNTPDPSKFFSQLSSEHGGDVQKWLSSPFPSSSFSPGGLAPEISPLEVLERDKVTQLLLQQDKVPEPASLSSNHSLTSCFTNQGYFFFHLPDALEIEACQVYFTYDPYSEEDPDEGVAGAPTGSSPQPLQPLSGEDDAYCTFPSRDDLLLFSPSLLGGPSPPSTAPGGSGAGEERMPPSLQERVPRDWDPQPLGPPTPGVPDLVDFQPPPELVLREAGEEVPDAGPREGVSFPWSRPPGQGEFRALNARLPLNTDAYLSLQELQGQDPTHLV
T1 sequence (looked up) 3: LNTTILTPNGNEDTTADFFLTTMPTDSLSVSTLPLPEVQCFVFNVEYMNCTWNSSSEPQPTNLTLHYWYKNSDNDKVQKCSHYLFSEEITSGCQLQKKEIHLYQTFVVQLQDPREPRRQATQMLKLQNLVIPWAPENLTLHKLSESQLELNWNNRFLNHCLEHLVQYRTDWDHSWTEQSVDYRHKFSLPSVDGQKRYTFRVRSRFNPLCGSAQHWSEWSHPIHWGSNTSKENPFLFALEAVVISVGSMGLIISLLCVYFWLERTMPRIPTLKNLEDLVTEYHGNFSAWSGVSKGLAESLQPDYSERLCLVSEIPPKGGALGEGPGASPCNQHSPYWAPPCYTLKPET
Test: FACS on HEK-Blue IL-2 cells (IL-2 receptor, no PD-1)

binding result: no binding
B1: ligand-IL-2 mutant-PD-L2-Fc (Fc fusion)
chain 1: LFTVTVPKELYIIEHGSNVTLECNFDTGSHVNLGAITASLQKVENDTSPHRERATLLEEQLPLGKASFHIPQVQVRDEGQYQCIIIYGVAWDYKYLTLKVKASYRKINTHILKVPETDEVELTCQATGYPLAEVSWPNVSVPANTSHSRTPEGLYQVTSVLRLKPPPGRNFSCVFWNTHVRELTLASIDLQSQMEPRTHPTGGGGSAPTSSSTKKTQLQLEHLLLDLQMILNGINNYKNPKLTDMLTFEFYMPKKATELKHLQCLERELKPLEEVLNLAQSKNFHLRPRDLISNINVIVLELKGSETTFMCEYADETATIVEFLNRWITFCQSIISTLTDKTHTCPPCPAPEDEGGPSVFLFPPKPKDTLMISRTPEVTCVVVDVSHEDPEVKFNWYVDGVEVHNAKTKPREEQYNSTYRVVSVLTVLHQDWLNGKEYKCKVSNKALPAPIEKTISKAKGQPREPQVYVYPPSREEMTKNQVSLTCLVKGFYPSDIAVEWESNGQPENNYKTTPPVLDEDGSFALVSKLTVDKSRWQQGNVFSCSVMHEALHNHYTQKSLSLSPGK
chain 2: LFTVTVPKELYIIEHGSNVTLECNFDTGSHVNLGAITASLQKVENDTSPHRERATLLEEQLPLGKASFHIPQVQVRDEGQYQCIIIYGVAWDYKYLTLKVKASYRKINTHILKVPETDEVELTCQATGYPLAEVSWPNVSVPANTSHSRTPEGLYQVTSVLRLKPPPGRNFSCVFWNTHVRELTLASIDLQSQMEPRTHPTGGGGSDKTHTCPPCPAPEKKGGPSVFLFPPKPKDTLMISRTPEVTCVVVDVSHEDPEVKFNWYVDGVEVHNAKTKPREEQYNSTYRVVSVLTVLHQDWLNGKEYKCKVSNKALPAPIEKTISKAKGQPREPQVYVLPPSREEMTKNQVSLLCLVKGFYPSDIAVEWESNGQPENRYMTWPPVLDSDGSFFLYSKLTVDKSRWQQGNVFSCSVMHEALHNHYTQKSLSLSPGK
notes: also called IL-2(R38D/K43E/E61R)/PD-L2-Fc immunocytokine; construct #11
